Assay results as given in patent US7063950.

Target: human neuronal calcium channel α1B-1α2bβ1-2 (human)
Experiment: ω-CgTx binding to transiently transfected HEK293 cells (plasmid ratio 2:1.8:1)

ω-CgTx GVIA (from UniProt P01522 46-72) (peptide)
Kd: 0.0546 nM | binding capacity (Bmax) (sites per cell): 28700
